Earlier results on one substance are cited in article PMC7687380.

The target in the data set is LRP1 (Homo sapiens) (UniProt Q07954).

pKd: −log10 of the molar value.

UniProt Q07954, sequence (Q07954 20-4544): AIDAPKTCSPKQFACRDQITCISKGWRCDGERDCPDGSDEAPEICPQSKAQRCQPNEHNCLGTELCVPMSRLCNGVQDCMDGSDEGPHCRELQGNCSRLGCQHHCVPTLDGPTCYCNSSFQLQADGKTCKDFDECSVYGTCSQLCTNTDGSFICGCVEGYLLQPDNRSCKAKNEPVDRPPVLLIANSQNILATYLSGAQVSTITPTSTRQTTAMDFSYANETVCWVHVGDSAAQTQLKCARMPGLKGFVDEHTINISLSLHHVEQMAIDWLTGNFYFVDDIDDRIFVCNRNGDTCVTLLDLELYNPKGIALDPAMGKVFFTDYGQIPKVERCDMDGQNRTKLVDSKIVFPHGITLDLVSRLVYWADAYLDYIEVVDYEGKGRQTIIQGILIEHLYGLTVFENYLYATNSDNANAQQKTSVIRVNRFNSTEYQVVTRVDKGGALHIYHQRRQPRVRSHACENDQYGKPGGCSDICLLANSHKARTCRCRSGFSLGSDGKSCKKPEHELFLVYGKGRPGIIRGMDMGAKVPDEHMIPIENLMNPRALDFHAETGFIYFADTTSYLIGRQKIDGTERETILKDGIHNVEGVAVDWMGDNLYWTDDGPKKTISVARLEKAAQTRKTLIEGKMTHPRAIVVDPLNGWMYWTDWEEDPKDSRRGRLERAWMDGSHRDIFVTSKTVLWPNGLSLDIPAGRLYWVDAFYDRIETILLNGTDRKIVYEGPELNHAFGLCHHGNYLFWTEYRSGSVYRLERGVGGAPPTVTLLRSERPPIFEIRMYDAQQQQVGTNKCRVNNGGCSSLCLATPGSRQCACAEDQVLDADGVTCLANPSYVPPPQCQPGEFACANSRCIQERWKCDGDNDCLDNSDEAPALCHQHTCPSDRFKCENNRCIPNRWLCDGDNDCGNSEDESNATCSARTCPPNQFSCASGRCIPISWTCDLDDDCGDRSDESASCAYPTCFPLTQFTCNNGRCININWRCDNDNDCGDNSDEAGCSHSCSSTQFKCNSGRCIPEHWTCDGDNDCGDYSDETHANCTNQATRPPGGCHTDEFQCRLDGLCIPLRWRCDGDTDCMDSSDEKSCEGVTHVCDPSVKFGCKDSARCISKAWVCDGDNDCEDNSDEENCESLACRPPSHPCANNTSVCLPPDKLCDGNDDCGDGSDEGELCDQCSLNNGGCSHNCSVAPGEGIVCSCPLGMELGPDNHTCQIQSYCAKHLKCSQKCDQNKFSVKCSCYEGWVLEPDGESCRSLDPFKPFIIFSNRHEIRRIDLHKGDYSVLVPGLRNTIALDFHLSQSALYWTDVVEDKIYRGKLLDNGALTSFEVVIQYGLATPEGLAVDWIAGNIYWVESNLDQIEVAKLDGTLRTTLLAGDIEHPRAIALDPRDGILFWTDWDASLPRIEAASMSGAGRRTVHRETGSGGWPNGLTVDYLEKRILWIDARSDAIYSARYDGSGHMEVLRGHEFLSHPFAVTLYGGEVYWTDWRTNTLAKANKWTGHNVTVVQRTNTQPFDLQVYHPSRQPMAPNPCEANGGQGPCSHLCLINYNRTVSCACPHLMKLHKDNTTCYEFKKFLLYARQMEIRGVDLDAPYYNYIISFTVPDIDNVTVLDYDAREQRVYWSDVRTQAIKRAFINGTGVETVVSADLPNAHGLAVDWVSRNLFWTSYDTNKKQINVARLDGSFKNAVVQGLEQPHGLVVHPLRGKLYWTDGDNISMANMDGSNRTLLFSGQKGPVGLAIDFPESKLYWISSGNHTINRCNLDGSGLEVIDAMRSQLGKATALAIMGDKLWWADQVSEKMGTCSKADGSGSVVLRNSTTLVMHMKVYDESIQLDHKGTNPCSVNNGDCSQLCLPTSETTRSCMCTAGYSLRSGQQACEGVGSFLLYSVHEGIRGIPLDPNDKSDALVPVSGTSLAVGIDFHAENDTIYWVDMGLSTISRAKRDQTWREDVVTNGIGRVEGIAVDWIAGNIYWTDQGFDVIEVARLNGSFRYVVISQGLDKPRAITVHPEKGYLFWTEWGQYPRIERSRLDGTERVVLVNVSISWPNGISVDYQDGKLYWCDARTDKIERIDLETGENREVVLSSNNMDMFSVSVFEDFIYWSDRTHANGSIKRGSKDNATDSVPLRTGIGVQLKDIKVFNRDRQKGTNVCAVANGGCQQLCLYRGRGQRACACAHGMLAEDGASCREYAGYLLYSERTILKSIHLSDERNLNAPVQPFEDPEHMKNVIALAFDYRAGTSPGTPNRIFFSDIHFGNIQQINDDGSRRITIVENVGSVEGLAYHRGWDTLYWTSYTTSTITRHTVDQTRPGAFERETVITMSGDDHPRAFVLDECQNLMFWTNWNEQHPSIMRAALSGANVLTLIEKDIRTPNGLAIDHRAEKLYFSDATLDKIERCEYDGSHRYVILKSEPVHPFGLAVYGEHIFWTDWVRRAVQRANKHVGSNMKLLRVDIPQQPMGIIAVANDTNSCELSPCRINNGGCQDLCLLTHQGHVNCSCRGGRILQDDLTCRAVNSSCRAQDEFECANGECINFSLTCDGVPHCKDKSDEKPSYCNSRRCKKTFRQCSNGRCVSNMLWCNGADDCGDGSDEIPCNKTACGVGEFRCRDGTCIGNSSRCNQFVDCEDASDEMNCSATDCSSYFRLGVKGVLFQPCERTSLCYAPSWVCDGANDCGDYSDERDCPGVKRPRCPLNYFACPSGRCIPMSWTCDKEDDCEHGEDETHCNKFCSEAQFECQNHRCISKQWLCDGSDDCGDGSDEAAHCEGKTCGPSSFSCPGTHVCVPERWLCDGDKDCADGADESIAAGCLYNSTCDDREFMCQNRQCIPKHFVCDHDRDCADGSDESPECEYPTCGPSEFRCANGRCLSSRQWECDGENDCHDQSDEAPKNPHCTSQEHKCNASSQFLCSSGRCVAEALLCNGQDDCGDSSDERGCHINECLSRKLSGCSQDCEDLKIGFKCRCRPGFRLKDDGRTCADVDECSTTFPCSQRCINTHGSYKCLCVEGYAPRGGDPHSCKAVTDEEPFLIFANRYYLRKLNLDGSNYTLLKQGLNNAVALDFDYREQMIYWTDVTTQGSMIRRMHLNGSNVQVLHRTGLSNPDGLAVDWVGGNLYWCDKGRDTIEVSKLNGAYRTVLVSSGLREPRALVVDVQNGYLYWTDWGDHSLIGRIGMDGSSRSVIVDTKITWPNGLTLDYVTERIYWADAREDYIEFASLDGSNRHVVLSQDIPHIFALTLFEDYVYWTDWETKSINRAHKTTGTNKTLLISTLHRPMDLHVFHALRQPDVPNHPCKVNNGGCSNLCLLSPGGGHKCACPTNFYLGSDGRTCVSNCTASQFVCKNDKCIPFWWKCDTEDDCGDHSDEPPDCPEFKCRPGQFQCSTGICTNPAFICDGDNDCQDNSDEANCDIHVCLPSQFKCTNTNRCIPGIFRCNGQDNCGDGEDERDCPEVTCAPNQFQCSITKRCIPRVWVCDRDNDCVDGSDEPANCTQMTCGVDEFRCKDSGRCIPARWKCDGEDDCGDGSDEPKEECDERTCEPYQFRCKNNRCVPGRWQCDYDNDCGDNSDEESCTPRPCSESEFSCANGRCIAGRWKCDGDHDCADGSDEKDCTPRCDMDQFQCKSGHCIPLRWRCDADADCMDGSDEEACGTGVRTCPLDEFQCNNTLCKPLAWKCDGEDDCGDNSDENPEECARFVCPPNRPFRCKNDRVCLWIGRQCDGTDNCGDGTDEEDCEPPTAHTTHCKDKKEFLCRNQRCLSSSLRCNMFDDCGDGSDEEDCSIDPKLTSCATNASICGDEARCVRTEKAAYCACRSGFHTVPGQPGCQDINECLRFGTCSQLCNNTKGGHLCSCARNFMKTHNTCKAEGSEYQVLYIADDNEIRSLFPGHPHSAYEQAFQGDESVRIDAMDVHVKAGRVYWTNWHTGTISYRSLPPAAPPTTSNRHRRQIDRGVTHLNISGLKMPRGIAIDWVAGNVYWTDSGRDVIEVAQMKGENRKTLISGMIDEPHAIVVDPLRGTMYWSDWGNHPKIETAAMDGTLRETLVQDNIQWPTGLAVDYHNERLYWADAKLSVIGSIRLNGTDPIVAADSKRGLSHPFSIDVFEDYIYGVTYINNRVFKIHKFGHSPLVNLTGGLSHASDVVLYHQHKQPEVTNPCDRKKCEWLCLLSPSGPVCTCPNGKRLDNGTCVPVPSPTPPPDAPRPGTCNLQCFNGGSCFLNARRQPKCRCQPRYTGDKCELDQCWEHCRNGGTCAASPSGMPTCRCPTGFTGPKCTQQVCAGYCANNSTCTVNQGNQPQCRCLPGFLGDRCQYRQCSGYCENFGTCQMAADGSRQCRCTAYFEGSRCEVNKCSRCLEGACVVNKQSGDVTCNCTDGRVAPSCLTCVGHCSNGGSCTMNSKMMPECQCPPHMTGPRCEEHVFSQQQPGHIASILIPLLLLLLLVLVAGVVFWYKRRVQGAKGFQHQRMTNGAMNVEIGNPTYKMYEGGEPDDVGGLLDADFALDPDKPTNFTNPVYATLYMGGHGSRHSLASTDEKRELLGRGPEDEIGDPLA

In the case of RAP (from UniProt P30533), the pKd (commonly −log10 of the Kd, conventionally taken in molar units) was 8.05.
